Columns and labels:
[1] = system: HeLa Kyoto; assay: solubility in G1/S (NP-40 vs SDS abundance) (log2 ratio); higher = more soluble; details: cell cycle stage: G1/S
[2] = system: HeLa Kyoto; assay: melting temperature (median over replicates), in situ; higher = more thermally stable
[3] = system: HeLa Kyoto; assay: thermal stability score vs G1/S (z-score of summed log2 fold changes over temperatures); higher = more thermally stable than in G1/S
[4] = system: HeLa Kyoto; assay: solubility change mitosis vs G1/S (difference of NP-40 vs SDS log2 ratios) (log2 ratio difference); higher = more soluble in mitosis
[5] = cell cycle stage: early G1 (4.5 h after nocodazole release)
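Throughout, for melting temperature (median over replicates), in situ: HeLa Kyoto cells synchronized by double thymidine or nocodazole block, proteins quantified by TMT10plex mass spectrometry, three independent biological replicates.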
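Throughout, for solubility change mitosis vs G1/S (difference of NP-40 vs SDS log2 ratios): synchronized HeLa Kyoto cells (double thymidine block for G1/S, nocodazole release for mitosis), protein amounts in NP-40 versus SDS lysates quantified by mass spectrometry, three biological replicates.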
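Throughout, for solubility in G1/S (NP-40 vs SDS abundance): HeLa Kyoto cells arrested at G1/S by double thymidine block, proteins quantified by TMT10plex mass spectrometry in mild NP-40 versus SDS extracts, three biological replicates.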
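Throughout, for thermal stability score vs G1/S (z-score of summed log2 fold changes over temperatures): synchronized HeLa Kyoto cells, proteins quantified by TMT10plex mass spectrometry, three biological replicates, mitosis taken 0.5 h after nocodazole release, G1/S directly after double thymidine block.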

Substance	solubility in G1/S (log2) [1]	melting temperature ([2]; cell cycle stage: G1/S)	melting temperature ([2]; cell cycle stage: mitosis)	thermal stability score [3, 5]	thermal stability score ([3]; cell cycle stage: mitosis)	solubility change mitosis (log2) [4]
MASPVAAQAGKLLRALALRPRFLAAGSQAVQLTSRRWLNLQEYQSKKLMSDNGVRVQRFFVADTANEALEAAKRLNAKEIVLKAQILAGGRGKGVFNSGLKGGVHLTKDPNVVGQLAKQMIGYNLATKQTPKEGVKVNKVMVAEALDISRETYLAILMDRSCNGPVLVGSPQGGVDIEEVAASNPELIFKEQIDIFEGIKDSQAQRMAENLGFVGPLKSQAADQITKLYNLFLKIDATQVEVNPFGETPEGQVVCFDAKINFDDNAEFRQKDIFAMDDKSENEPIENEAAKYDLKYIGLDGNIACFVNGAGLAMATCDIIFLNGGKPANFLDLGGGVKEAQVYQAFKLLTADPKVEAILVNIFGGIVNCAIIANGITKACRELELKVPLVVRLEGTNVQEAQKILNNSGLPITSAIDLEDAAKKAVASVAKK [SUCLG2]	0.383	51.3 °C	51.2 °C	0.0772	0.0477	-0.104
MSFLQDPSFFTMGMWSIGAGALGAAALALLLANTDVFLSKPQKAALEYLEDIDLKTLEKEPRTFKAKELWEKNGAVIMAVRRPGCFLCREEAADLSSLKSMLDQLGVPLYAVVKEHIRTEVKDFQPYFKGEIFLDEKKKFYGPQRRKMMFMGFIRLGVWYNFFRAWNGGFSGNLEGEGFILGGVFVVGSGKQGILLEHREKEFGDKVNLLSVLEAAKMIKPQTLASEKK [FAM213A]	-0.0704	56.6 °C	55.5 °C	-0.538	-0.108	-0.0729
MTTQQIDLQGPGPWGFRLVGGKDFEQPLAISRVTPGSKAALANLCIGDVITAIDGENTSNMTHLEAQNRIKGCTDNLTLTVARSEHKVWSPLVTEEGKRHPYKMNLASEPQEVLHIGSAHNRSAMPFTASPASSTTARVITNQYNNPAGLYSSENISNFNNALESKTAASGVEANSRPLDHAQPPSSLVIDKESEVYKMLQEKQELNEPPKQSTSFLVLQEILESEEKGDPNKPSGFRSVKAPVTKVAASIGNAQKLPMCDKCGTGIVGVFVKLRDRHRHPECYVCTDCGTNLKQKGHFFVEDQIYCEKHARERVTPPEGYEVVTVFPK [PDLIM1]	0.455	55.6 °C	56 °C	-1.51	-0.369	0.147
MAQFVRNLVEKTPALVNAAVTYSKPRLATFWYYAKVELVPPTPAEIPRAIQSLKKIVNSAQTGSFKQLTVKEAVLNGLVATEVLMWFYVGEIIGKRGIIGYDV [ATP5L]	-0.573	55 °C	52.8 °C	-1.18	-2.02	0.0203
MASERLPNRPACLLVASGAAEGVSAQSFLHCFTMASTAFNLQVATPGGKAMEFVDVTESNARWVQDFRLKAYASPAKLESIDGARYHALLIPSCPGALTDLASSGSLARILQHFHSESKPICAVGHGVAALCCATNEDRSWVFDSYSLTGPSVCELVRAPGFARLPLVVEDFVKDSGACFSASEPDAVHVVLDRHLVTGQNASSTVPAVQNLLFLCGSRK [PDDC1]	0.169	55 °C	55.4 °C	-1.01	-0.729	-0.0189
MAALVVSGAAEQGGRDGPGRGRAPRGRVANQIPPEILKNPQLQAAIRVLPSNYNFEIPKTIWRIQQAQAKKVALQMPEGLLLFACTIVDILERFTEAEVMVMGDVTYGACCVDDFTARALGADFLVHYGHSCLIPMDTSAQDFRVLYVFVDIRIDTTHLLDSLRLTFPPATALALVSTIQFVSTLQAAAQELKAEYRVSVPQCKPLSPGEILGCTSPRLSKEVEAVVYLGDGRFHLESVMIANPNVPAYRYDPYSKVLSREHYDHQRMQAARQEAIATARSAKSWGLILGTLGRQGSPKILEHLESRLRALGLSFVRLLLSEIFPSKLSLLPEVDVWVQVACPRLSIDWGTAFPKPLLTPYEAAVALRDISWQQPYPMDFYAGSSLGPWTVNHGQDRRPHAPGRPARGKVQEGSARPPSAVACEDCSCRDEKVAPLAP [DPH1]	0.145	53 °C	53 °C	-0.776	-1.19	-0.202
PLXNB2	-0.0357	52.2 °C	51.1 °C	-1.95	-2.08	-0.0477
MAATRSPTRARERERSGAPAAGSDQVHSWMLATSQALDTVWRMAKGFVMLAVSFLVAAICYFRRLHLYSGHKLKWWIGYLQRKFKRNLSVEAEVDLLSYCAREWKGETPRNKLMRKAYEELFWRHHIKCVRQVRRDNYDALRSVLFQIFSQGISFPSWMKEKDIVKLPEKLLFSQGCNWIQQYSFGPEKYTGSNVFGKLRKYVELLKTQWTEFNGIRDYHKRGSMCNTLFSDAILEYKLYEALKFIMLYQVTEVYEQMKTKKVIPSLFRLLFSRETSSDPLSFMMNHLNSVGDTCGLEQIDMFILGYSLEVKIKVFRLFKFNSRDFEVCYPEEPLRDWPEISLLTENDRHYHIPVF [FAM105A]	-0.437		52.7 °C	-0.702	-1.45	-0.0882
MATTGTPTADRGDAAATDDPAARFQVQKHSWDGLRSIIHGSRKYSGLIVNKAPHDFQFVQKTDESGPHSHRLYYLGMPYGSRENSLLYSEIPKKVRKEALLLLSWKQMLDHFQATPHHGVYSREEELLRERKRLGVFGITSYDFHSESGLFLFQASNSLFHCRDGGKNGFMVSPMKPLEIKTQCSGPRMDPKICPADPAFFSFINNSDLWVANIETGEERRLTFCHQGLSNVLDDPKSAGVATFVIQEEFDRFTGYWWCPTASWEGSEGLKTLRILYEEVDESEVEVIHVPSPALEERKTDSYRYPRTGSKNPKIALKLAEFQTDSQGKIVSTQEKELVQPFSSLFPKVEYIARAGWTRDGKYAWAMFLDRPQQWLQLVLLPPALFIPSTENEEQRLASARAVPRNVQPYVVYEEVTNVWINVHDIFYPFPQSEGEDELCFLRANECKTGFCHLYKVTAVLKSQGYDWSEPFSPGEDEFKCPIKEEIALTSGEWEVLARHGSKIWVNEETKLVYFQGTKDTPLEHHLYVVSYEAAGEIVRLTTPGFSHSCSMSQNFDMFVSHYSSVSTPPCVHVYKLSGPDDDPLHKQPRFWASMMEAASCPPDYVPPEIFHFHTRSDVRLYGMIYKPHALQPGKKHPTVLFVYGGPQVQLVNNSFKGIKYLRLNTLASLGYAVVVIDGRGSCQRGLRFEGALKNQMGQVEIEDQVEGLQFVAEKYGFIDLSRVAIHGWSYGGFLSLMGLIHKPQVFKVAIAGAPVTVWMAYDTGYTERYMDVPENNQHGYEAGSVALHVEKLPNEPNRLLILHGFLDENVHFFHTNFLVSQLIRAGKPYQLQIYPNERHSIRCPESGEHYEVTLLHFLQEYL [DPP9]	-0.0578	51.3 °C	51.1 °C	-0.344	-0.63	-0.171
MSLLMISENVKLAREYALLGNYDSAMVYYQGVLDQMNKYLYSVKDTYLQQKWQQVWQEINVEAKHVKDIMKTLESFKLDSTPLKAAQHDLPASEGEVWSMPVPVERRPSPGPRKRQSSQYSDPKSHGNRPSTTVRVHRSSAQNVHNDRGKAVRCREKKEQNKGREEKNKSPAAVTEPETNKFDSTGYDKDLVEALERDIISQNPNVRWDDIADLVEAKKLLKEAVVLPMWMPEFFKGIRRPWKGVLMVGPPGTGKTLLAKAVATECKTTFFNVSSSTLTSKYRGESEKLVRLLFEMARFYSPATIFIDEIDSICSRRGTSEEHEASRRVKAELLVQMDGVGGTSENDDPSKMVMVLAATNFPWDIDEALRRRLEKRIYIPLPSAKGREELLRISLRELELADDVDLASIAENMEGYSGADITNVCRDASLMAMRRRIEGLTPEEIRNLSKEEMHMPTTMEDFEMALKKVSKSVSAADIERYEKWIFEFGSC [KATNA1]	0.0763	51.4 °C	49.9 °C	0.0753	0.484	-0.000211
MVHQVLYRALVSTKWLAESIRTGKLGPGLRVLDASWYSPGTREARKEYLERHVPGASFFDIEECRDTASPYEMMLPSEAGFAEYVGRLGISNHTHVVVYDGEHLGSFYAPRVWWMFRVFGHRTVSVLNGGFRNWLKEGHPVTSEPSRPEPAVFKATLDRSLLKTYEQVLENLESKRFQLVDSRSQGRFLGTEPEPDAVGLDSGHIRGAVNMPFMDFLTEDGFEKGPEELRALFQTKKVDLSQPLIATCRKGVTACHVALAAYLCGKPDVAVYDGSWSEWFRRAPPESRVSQGKSEKA [TST]	0.187	48.3 °C	49.3 °C	5.41	3.98	-0.0824
MAAAEGPVGDGELWQTWLPNHVVFLRLREGLKNQSPTEAEKPASSSLPSSPPPQLLTRNVVFGLGGELFLWDGEDSSFLVVRLRGPSGGGEEPALSQYQRLLCINPPLFEIYQVLLSPTQHHVALIGIKGLMVLELPKRWGKNSEFEGGKSTVNCSTTPVAERFFTSSTSLTLKHAAWYPSEILDPHVVLLTSDNVIRIYSLREPQTPTNVIILSEAEEESLVLNKGRAYTASLGETAVAFDFGPLAAVPKTLFGQNGKDEVVAYPLYILYENGETFLTYISLLHSPGNIGKLLGPLPMHPAAEDNYGYDACAVLCLPCVPNILVIATESGMLYHCVVLEGEEEDDHTSEKSWDSRIDLIPSLYVFECVELELALKLASGEDDPFDSDFSCPVKLHRDPKCPSRYHCTHEAGVHSVGLTWIHKLHKFLGSDEEDKDSLQELSTEQKCFVEHILCTKPLPCRQPAPIRGFWIVPDILGPTMICITSTYECLIWPLLSTVHPASPPLLCTREDVEVAESPLRVLAETPDSFEKHIRSILQRSVANPAFLKASEKDIAPPPEECLQLLSRATQVFREQYILKQDLAKEEIQRRVKLLCDQKKKQLEDLSYCREERKSLREMAERLADKYEEAKEKQEDIMNRMKKLLHSFHSELPVLSDSERDMKKELQLIPDQLRHLGNAIKQVTMKKDYQQQKMEKVLSLPKPTIILSAYQRKCIQSILKEEGEHIREMVKQINDIRNHVNF [NUP88]	-0.268	50.4 °C	48.8 °C	-1.46	-0.755	0.171
DOCK11	-0.234	51.4 °C	51.5 °C	0.076	-0.52	-0.145
MASPGIEVELLGKGHSDLGEVAPEIKASERRTAVAIADLEWREMEGDDCEFRYGDGTNEAQDNDFPTVERSRLQEMLSLLGLETYQVQKLSLQDSLQISFDSMKNWAPQVPKDLPWNFLRKLQALNADARNTTMVLDVLPDARPVEKESQMEEEIIYWDPADDLAADIYSFSELPTPDTPVNPLDLLCALLLSSDSFLQQEIALKMALCQFALPLVLPDSENHYHTFLLWAMRGIVRTWWSQPPRGMGSFREDSVVLSRAPAFAFVRMDVSSNSKSQLLNAVLSPGHRQWDCFWHRDLNLGTNAREISDGLVEISWFFPSGREDLDIFPEPVAFLNLRGDIGSHWLQFKLLTEISSAVFILTDNISKKEYKLLYSMKESTTKYYFILSPYRGKRNTNLRFLNKLIPVLKIDHSHVLVKVSSTDSDSFVKRIRAIVGNVLRAPCRRVSVEDMAHAARKLGLKVDEDCEECQKAKDRMERITRKIKDSDAYRRDELRLQGDPWRKAAQVEKEFCQLQWAVDPPEKHRAELRRRLLELRMQQNGHDPSSGVQEFISGISSPSLSEKQYFLRWMEWGLARVAQPRLRQPPETLLTLRPKHGGTTDVGEPLWPEPLGVEHFLREMGQFYEAESCLVEAGRLPAGQRRFAHFPGLASELLLTGLPLELIDGSTLSMPVRWVTGLLKELHVRLERRSRLVVLSTVGVPGTGKSTLLNTMFGLRFATGKSCGPRGAFMQLITVAEGFSQDLGCDHILVIDSGGLIGGALTSAGDRFELEASLATLLMGLSNVTVISLAETKDIPAAILHAFLRLEKTGHMPNYQFVYQNLHDVSVPGPRPRDKRQLLDPPGDLSRAAAQMEKQGDGFRALAGLAFCDPEKQHIWHIPGLWHGAPPMAAVSLAYSEAIFELKRCLLENIRNGLSNQNKNIQQLIELVRRL [URGCP]	-0.246	49.3 °C	49.8 °C	0.429	0.88	-0.0805

From the supplement of paper PMC5998384
